The experiment deals with T1, GST-FD (Arabidopsis thaliana (Mouse-ear cress), UniProt Q84JK2).
T1 chain: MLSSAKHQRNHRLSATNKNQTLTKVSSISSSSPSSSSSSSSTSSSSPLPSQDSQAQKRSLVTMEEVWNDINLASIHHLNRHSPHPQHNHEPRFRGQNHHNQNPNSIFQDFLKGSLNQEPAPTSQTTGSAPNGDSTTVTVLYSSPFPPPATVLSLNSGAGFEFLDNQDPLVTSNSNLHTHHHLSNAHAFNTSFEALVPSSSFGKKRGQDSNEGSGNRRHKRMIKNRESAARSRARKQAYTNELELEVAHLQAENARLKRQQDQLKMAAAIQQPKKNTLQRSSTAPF
Kind of experiment: GST pull-down.

B1: Trx-His-CPK6 (protein)
chain: MGNSCRGSFKDKIYEGNHSRPEENSKSTTTTVSSVHSPTTDQDFSKQNTNPALVIPVKEPIMRRNVDNQSYYVLGHKTPNIRDLYTLSRKLGQGQFGTTYLCTDIATGVDYACKSISKRKLISKEDVEDVRREIQIMHHLAGHKNIVTIKGAYEDPLYVHIVMELCAGGELFDRIIHRGHYSERKAAELTKIIVGVVEACHSLGVMHRDLKPENFLLVNKDDDFSLKAIDFGLSVFFKPGQIFKDVVGSPYYVAPEVLLKHYGPEADVWTAGVILYILLSGVPPFWAETQQGIFDAVLKGYIDFDTDPWPVISDSAKDLIRKMLCSSPSERLTAHEVLRHPWICENGVAPDRALDPAVLSRLKQFSAMNKLKKMALKVIAESLSEEEIAGLRAMFEAMDTDNSGAITFDELKAGLRRYGSTLKDTEIRDLMEAADVDNSGTIDYSEFIAATIHLNKLEREEHLVSAFQYFDKDGSGYITIDELQQSCIEHGMTDVFLEDIIKEVDQDNDGRIDYEEFVAMMQKGNAGVGRRTMKNSLNISMRDV
On to B1, for which the binding result is reported as “binds”.

B2: Trx-His-CPK33 (protein)
chain: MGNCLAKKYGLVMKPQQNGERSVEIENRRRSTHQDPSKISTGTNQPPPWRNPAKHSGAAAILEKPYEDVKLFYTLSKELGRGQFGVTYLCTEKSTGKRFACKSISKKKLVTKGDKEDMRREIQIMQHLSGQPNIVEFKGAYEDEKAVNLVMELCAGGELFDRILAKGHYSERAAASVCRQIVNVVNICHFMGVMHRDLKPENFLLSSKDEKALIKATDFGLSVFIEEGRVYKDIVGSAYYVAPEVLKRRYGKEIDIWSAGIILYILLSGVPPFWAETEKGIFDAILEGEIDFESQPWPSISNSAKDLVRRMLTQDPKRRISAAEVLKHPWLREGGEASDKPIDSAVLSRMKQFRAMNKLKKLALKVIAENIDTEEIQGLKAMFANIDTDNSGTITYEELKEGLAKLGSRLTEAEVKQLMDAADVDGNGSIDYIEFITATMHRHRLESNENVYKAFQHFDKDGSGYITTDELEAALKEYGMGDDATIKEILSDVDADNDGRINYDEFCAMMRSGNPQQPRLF
In the case of B2, the binding result is given as “binds”.
